From patent US20220227830A1, “QD DOSING OF GIP RECEPTOR AGONIST PEPTIDE COMPOUNDS AND USES THEREOF” (Takeda Pharmaceutical Company Limited, priority 2020, published 2022)
Starred links: 1 amine or outer side, 2 acyl side, 3 side chain; linkers in the order of their positions; H or OH if unused. Non-standard residues stand in square brackets, D forms with d. Groups on a side chain read outwards from the residue. No end group written: not given here. *: point of attachment. G2E3 = linker of 2 Gly and 3 Glu (read GGEEE); C16 diacid = O=C(O)CCCCCCCCCCCCCCC(=O)*; C15 diacid = O=C(O)CCCCCCCCCCCCCC(=O)*; γGlu = O=C(O)[C@H](CCC(=O)[*:2])N[*:1]; NMeY = CN[C@@H](Cc1ccc(O)cc1)C(=O)O; AEEA = NCCOCCOCC(=O)O; Aib = CC(C)(N)C(=O)O

Legend:
[1] = target: full-length human GLP-1R with an N-terminal FLAG tag (human, UniProt P43220 24-463); experiment: cell-based or functional assay
[2] = target: T1, full-length human GIPR with an N-terminal FLAG tag (human, UniProt P48546 22-466); experiment: cell-based or functional assay
T1 sequence (looked up): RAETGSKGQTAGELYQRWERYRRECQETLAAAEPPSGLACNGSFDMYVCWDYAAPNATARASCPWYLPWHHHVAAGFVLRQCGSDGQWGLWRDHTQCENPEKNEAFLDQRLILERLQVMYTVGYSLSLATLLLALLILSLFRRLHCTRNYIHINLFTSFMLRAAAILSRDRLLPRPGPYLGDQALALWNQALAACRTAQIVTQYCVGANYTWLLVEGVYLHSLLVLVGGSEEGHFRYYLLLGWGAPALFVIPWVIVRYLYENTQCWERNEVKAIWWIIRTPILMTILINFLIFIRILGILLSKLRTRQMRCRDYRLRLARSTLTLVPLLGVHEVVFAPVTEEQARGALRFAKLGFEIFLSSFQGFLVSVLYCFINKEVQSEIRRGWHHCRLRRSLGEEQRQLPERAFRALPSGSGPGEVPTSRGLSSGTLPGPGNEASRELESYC

Binder	Human GLP1R cAMP HEK293T EC50 [1] [nM]	Human GIPR cAMP, HEK293T EC50 [2] [nM]
[NMeY][Aib]EGTFISDYSI[Aib]K([AEEA-AEEA-γGlu-C15 diacid])DR[Aib]AQ[Aib]DFVNWLLAQRPSSGAPPPS-NH2 (N-terminus assumed; SMILES CC[C@H](C)[C@H](NC(=O)[C@H](Cc1ccccc1)NC(=O)[C@@H](NC(=O)CNC(=O)[C@H](CCC(=O)O)NC(=O)C(C)(C)NC(=O)[C@H](Cc1ccc(O)cc1)NC)[C@@H](C)O)C(=O)N[C@@H](CO)C(=O)N[C@@H](CC(=O)O)C(=O)N[C@@H](Cc1ccc(O)cc1)C(=O)N[C@@H](CO)C(=O)N[C@H](C(=O)NC(C)(C)C(=O)N[C@@H](CCCCNC(=O)COCCOCCNC(=O)COCCOCCNC(=O)CC[C@H](NC(=O)CCCCCCCCCCCCCC(=O)O)C(=O)O)C(=O)N[C@@H](CC(=O)O)C(=O)N[C@@H](CCCNC(=N)N)C(=O)NC(C)(C)C(=O)N[C@@H](C)C(=O)N[C@@H](CCC(N)=O)C(=O)NC(C)(C)C(=O)N[C@@H](CC(=O)O)C(=O)N[C@@H](Cc1ccccc1)C(=O)N[C@H](C(=O)N[C@@H](CC(N)=O)C(=O)N[C@@H](Cc1c[nH]c2ccccc12)C(=O)N[C@@H](CC(C)C)C(=O)N[C@@H](CC(C)C)C(=O)N[C@@H](C)C(=O)N[C@@H](CCC(N)=O)C(=O)N[C@@H](CCCNC(=N)N)C(=O)N1CCC[C@H]1C(=O)N[C@@H](CO)C(=O)N[C@@H](CO)C(=O)NCC(=O)N[C@@H](C)C(=O)N1CCC[C@H]1C(=O)N1CCC[C@H]1C(=O)N1CCC[C@H]1C(=O)N[C@@H](CO)C(N)=O)C(C)C)[C@@H](C)CC) [Compound 128]	457	0.0004
[NMeY][Aib]EGTFISDYSI[Aib]K([AEEA-AEEA-γGlu-C15 diacid])DR[Aib]AQ[Aib]DFVNWLLAQSPSSGAPPPS-NH2 (N-terminus assumed; SMILES CC[C@H](C)[C@H](NC(=O)[C@H](Cc1ccccc1)NC(=O)[C@@H](NC(=O)CNC(=O)[C@H](CCC(=O)O)NC(=O)C(C)(C)NC(=O)[C@H](Cc1ccc(O)cc1)NC)[C@@H](C)O)C(=O)N[C@@H](CO)C(=O)N[C@@H](CC(=O)O)C(=O)N[C@@H](Cc1ccc(O)cc1)C(=O)N[C@@H](CO)C(=O)N[C@H](C(=O)NC(C)(C)C(=O)N[C@@H](CCCCNC(=O)COCCOCCNC(=O)COCCOCCNC(=O)CC[C@H](NC(=O)CCCCCCCCCCCCCC(=O)O)C(=O)O)C(=O)N[C@@H](CC(=O)O)C(=O)N[C@@H](CCCNC(=N)N)C(=O)NC(C)(C)C(=O)N[C@@H](C)C(=O)N[C@@H](CCC(N)=O)C(=O)NC(C)(C)C(=O)N[C@@H](CC(=O)O)C(=O)N[C@@H](Cc1ccccc1)C(=O)N[C@H](C(=O)N[C@@H](CC(N)=O)C(=O)N[C@@H](Cc1c[nH]c2ccccc12)C(=O)N[C@@H](CC(C)C)C(=O)N[C@@H](CC(C)C)C(=O)N[C@@H](C)C(=O)N[C@@H](CCC(N)=O)C(=O)N[C@@H](CO)C(=O)N1CCC[C@H]1C(=O)N[C@@H](CO)C(=O)N[C@@H](CO)C(=O)NCC(=O)N[C@@H](C)C(=O)N1CCC[C@H]1C(=O)N1CCC[C@H]1C(=O)N1CCC[C@H]1C(=O)N[C@@H](CO)C(N)=O)C(C)C)[C@@H](C)CC) [Compound 129]	1000	0.0005
[NMeY][Aib]EGTFISDYSIALDR[Aib]AQ[Aib]KFVNWLLAQRPSSGAPPPS-NH2 (not fully specified (residue 21)) [Compound 130]	91.2	0.0004
[NMeY][Aib]EGTFISDYSIALDR[Aib]HQ[Aib]K([AEEA-AEEA-γGlu-C15 diacid])FVNWLLAQK-OH (N-terminus assumed; SMILES CC[C@H](C)[C@H](NC(=O)[C@H](CO)NC(=O)[C@H](Cc1ccc(O)cc1)NC(=O)[C@H](CC(=O)O)NC(=O)[C@H](CO)NC(=O)[C@@H](NC(=O)[C@H](Cc1ccccc1)NC(=O)[C@@H](NC(=O)CNC(=O)[C@H](CCC(=O)O)NC(=O)C(C)(C)NC(=O)[C@H](Cc1ccc(O)cc1)NC)[C@@H](C)O)[C@@H](C)CC)C(=O)N[C@@H](C)C(=O)N[C@@H](CC(C)C)C(=O)N[C@@H](CC(=O)O)C(=O)N[C@@H](CCCNC(=N)N)C(=O)NC(C)(C)C(=O)N[C@@H](Cc1c[nH]cn1)C(=O)N[C@@H](CCC(N)=O)C(=O)NC(C)(C)C(=O)N[C@@H](CCCCNC(=O)COCCOCCNC(=O)COCCOCCNC(=O)CC[C@H](NC(=O)CCCCCCCCCCCCCC(=O)O)C(=O)O)C(=O)N[C@@H](Cc1ccccc1)C(=O)N[C@H](C(=O)N[C@@H](CC(N)=O)C(=O)N[C@@H](Cc1c[nH]c2ccccc12)C(=O)N[C@@H](CC(C)C)C(=O)N[C@@H](CC(C)C)C(=O)N[C@@H](C)C(=O)N[C@@H](CCC(N)=O)C(=O)N[C@@H](CCCCN)C(=O)O)C(C)C) [Compound 12]	363	0.0002
[NMeY][Aib]EGTFISDYSIALDRK([Gly-Gly-Gly-Gly-Gly-γGlu-C15 diacid])AQ[Aib]NFVNWLLAQSPSSGAPPPS-NH2 (N-terminus assumed; SMILES CC[C@H](C)[C@H](NC(=O)[C@H](CO)NC(=O)[C@H](Cc1ccc(O)cc1)NC(=O)[C@H](CC(=O)O)NC(=O)[C@H](CO)NC(=O)[C@@H](NC(=O)[C@H](Cc1ccccc1)NC(=O)[C@@H](NC(=O)CNC(=O)[C@H](CCC(=O)O)NC(=O)C(C)(C)NC(=O)[C@H](Cc1ccc(O)cc1)NC)[C@@H](C)O)[C@@H](C)CC)C(=O)N[C@@H](C)C(=O)N[C@@H](CC(C)C)C(=O)N[C@@H](CC(=O)O)C(=O)N[C@@H](CCCNC(=N)N)C(=O)N[C@@H](CCCCNC(=O)CNC(=O)CNC(=O)CNC(=O)CNC(=O)CNC(=O)CC[C@H](NC(=O)CCCCCCCCCCCCCC(=O)O)C(=O)O)C(=O)N[C@@H](C)C(=O)N[C@@H](CCC(N)=O)C(=O)NC(C)(C)C(=O)N[C@@H](CC(N)=O)C(=O)N[C@@H](Cc1ccccc1)C(=O)N[C@H](C(=O)N[C@@H](CC(N)=O)C(=O)N[C@@H](Cc1c[nH]c2ccccc12)C(=O)N[C@@H](CC(C)C)C(=O)N[C@@H](CC(C)C)C(=O)N[C@@H](C)C(=O)N[C@@H](CCC(N)=O)C(=O)N[C@@H](CO)C(=O)N1CCC[C@H]1C(=O)N[C@@H](CO)C(=O)N[C@@H](CO)C(=O)NCC(=O)N[C@@H](C)C(=O)N1CCC[C@H]1C(=O)N1CCC[C@H]1C(=O)N1CCC[C@H]1C(=O)N[C@@H](CO)C(N)=O)C(C)C) [Compound 131]	75.9	0.0003
[NMeY][Aib]EGTFISDYSIALDRK([G5-γGlu-C15DA])AQ[Aib]DFVNWLLAQSPSSGAPPPS-NH2 [Compound 132]	21.9	0.0001
[NMeY][Aib]EGTFISDYSIALDR[Aib]KQ[Aib]NFVNWLLAQSGGGGS-NH2 (not fully specified (residue 18)) [Compound 133]	1000	0.0005
[NMeY][Aib]EGTFISDYSI[Aib]KDR[Aib]AQ[Aib]NFVNWLLAQRGGGGS-NH2 (not fully specified (residue 14)) [Compound 134]	1000	0.0004
[NMeY][Aib]EGTFISDYSI[Aib]LDRK([AEEA-AEEA-γGlu-γGlu-C15 diacid])AQ[Aib]NFVNWLLAQRGGGGS-NH2 [Compound 135]	646	0.0005
Me-Y[Aib]EGTFISDYSI[Aib]LDR[Aib]AQ[Aib]NFVNWLLAQK([AEEA-AEEA-γGlu-γGlu-C15 diacid])GGGGS-NH2 [Compound 136]	407	0.0009
[NMeY][Aib]EGTFISDYSIALDRK([Gly-Gly-Gly-Gly-Gly-γGlu-C15 diacid])AQ[Aib]DFVNWLLAQRPSSGAPPPS-NH2 [Compound 137]	479	0.0002
Me-Y[Aib]EGTFISDYSI[Aib]K([G2E3-C15 diacid])DR[Aib]AQ[Aib]NFVNWLLAQRPSSGAPPPS-NH2 [Compound 138]	1000	0.0004
Me-Y[Aib]EGTFISDYSI[Aib]K([AEEA-AEEA-γGlu-γGlu-C15 diacid])DR[Aib]AQ[Aib]NFVNWLLAQSPSSGAPPPS-NH2 [Compound 139]	1000	0.0004
Me-Y[Aib]EGTFISDYSI[Aib]KDR[Aib]AQ[Aib]DFVNWLLAQSPSSGAPPPS-NH2 (not fully specified (residues 1, 14)) [Compound 140]	178	0.0004
Me-Y[Aib]EGTFISDYSI[Aib]KDR[Aib]AQ[Aib]DFVNWLLAQSG-OH (not fully specified (residues 1, 14)) [Compound 141]	64.6	0.0003
[NMeY][Aib]EGTFISDYSI[Aib]LDRK([AEEA-AEEA-γGlu-γGlu-C16 diacid])AQ[Aib]NFVNWLLAQRPSSGAPPPS-NH2 [Compound 145]	912	0.0004
